T1: FLAG-tagged PME-1 (wild-type protein methylesterase 1) (human, UniProt Q9Y570 1-386)
T1 construct: Expressed in stably transfected ECC-1 cells and pulled down with FLAG resin; also called FLAG-PME-1; not shown: FLAG tag
T1 sequence (looked up): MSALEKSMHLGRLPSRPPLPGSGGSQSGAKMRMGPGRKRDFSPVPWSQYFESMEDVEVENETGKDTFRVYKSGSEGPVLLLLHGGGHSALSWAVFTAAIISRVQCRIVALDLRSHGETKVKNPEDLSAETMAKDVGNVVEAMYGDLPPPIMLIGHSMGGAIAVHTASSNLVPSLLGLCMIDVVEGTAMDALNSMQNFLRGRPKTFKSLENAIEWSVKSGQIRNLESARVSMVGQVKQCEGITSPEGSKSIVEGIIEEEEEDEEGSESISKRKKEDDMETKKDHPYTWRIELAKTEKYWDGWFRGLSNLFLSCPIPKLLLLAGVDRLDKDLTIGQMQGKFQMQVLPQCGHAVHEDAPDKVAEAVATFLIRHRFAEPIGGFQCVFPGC

T2: FLAG-tagged PME-1 S156A (catalytically inactive mutant) (human, UniProt Q9Y570 1-386)
T2 construct: Expressed in stably transfected ECC-1 cells and pulled down with FLAG resin; also called FLAG-PME-1 S156A; FLAG PME-1 S156A; not shown: FLAG tag
T2 sequence (looked up): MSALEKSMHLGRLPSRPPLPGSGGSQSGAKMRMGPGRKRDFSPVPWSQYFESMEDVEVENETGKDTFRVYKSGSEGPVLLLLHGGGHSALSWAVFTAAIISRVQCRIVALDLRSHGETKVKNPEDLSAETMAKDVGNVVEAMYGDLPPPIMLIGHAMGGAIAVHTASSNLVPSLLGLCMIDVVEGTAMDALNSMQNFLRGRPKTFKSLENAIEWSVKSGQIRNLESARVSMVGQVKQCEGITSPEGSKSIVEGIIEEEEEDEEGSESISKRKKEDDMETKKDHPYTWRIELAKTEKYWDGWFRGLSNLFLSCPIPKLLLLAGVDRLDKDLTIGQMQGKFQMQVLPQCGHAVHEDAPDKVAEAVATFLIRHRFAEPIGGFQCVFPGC


How the values were obtained:
[1] = molecular target: protein phosphatase 2A (PP2A); experiment: cell-based or functional assay
[2] = molecular target: T1, FLAG-tagged PME-1 (wild-type protein …); experiment: FLAG co-immunoprecipitation from ECC-1 lysate, Western blot with anti-Ppp6c
Description: (§1) Cells (post-transfection) were collected and cellular protein was extracted. Input depicts the relative expression of each protein in total cell lysate, whereas the elution depicts proteins that were immunoprecipitated with FLAG resin.
(§2) There are other protein phosphatases in the same family as PP2A in cells that share some similarity to PP2A. In this experiment, we examined if PME-1 binding to Ppp2ca is specific over other phosphatases. We chose to examine phosphatase 4 (PP4) and phosphatase 6 (PP6) since the C-terminal tail of the catalytic subunit of PP2A (i.e., Ppp2ca) is TPDYFL (amino acids 304-309 of SEQ ID NO: 12) (the substrate for PME-1 demethylation) is similar to that of protein phosphatase 4 (i.e., Ppp4c) (VADYFL) (amino acids 302-307 of SEQ ID NO: 13) and phosphatase 6 (i.e., Ppp6c), (TTPYFL) (amino acids 300-305 of SEQ ID NO: 14), respectively. Specifically, we examined if PME-1 may bind and demethylate PP4 or PP6.

[3] = molecular target: T2, FLAG-tagged PME-1 S156A (catalytically …); experiment: as above
Description: as §1, §2

| PP2A phosphatase activity (RL95-2 cells over-expressing PME-1) [1] [% decrease] | PP2A phosphatase activity (RL95-2 cells, shRNA against PPME1) (fold increase) [1] | binding result [2] | binding result [3] | Molecule |
| --- | --- | --- | --- | --- |
| 90 | 30 |  |  | PME-1 protein (endogenous, over-expressed or depleted in cells) (from UniProt Q9Y570 2-386) (enzyme) |
|  |  | no binding | no binding | Ppp6c, the catalytic subunit of PP6 (endogenous) (enzyme, Endogenous protein in the lysate of the human ECC-1 cell line; also called phosphatase 6) MAPLDLDKYVEIARLCKYLPENDLKRLCDYVCDLLLEESNVQPVSTPVTVCGDIHGQFYDLCELFRTGGQVPDTNYIFMGDFVDRGYYSLETFTYLLALKAKWPDRITLLRGNHESRQITQVYGFYDECQTKYGNANAWRYCTKVFDMLTVAALIDEQILCVHGGLSPDIKTLDQIRTIERNQEIPHKGAFCDLVWSDPEDVDTWAISPRGAGWLFGAKVTNEFVHINNLKLICRAHQLVHEGYKFMFDEKLVTVWSAPNYCYRCGNIASIMVFKDVNTREPKLFRAVPDSERVIPPRTTTPYFL |

Source: patent US20150284723A1 (MEDICAL DIAGNOSTIC LABORATORIES, published 2015)
